# Target: human CD81 (on Huh-7 cells and human primary hepatocytes) (human) (UniProt P60033)
# Assay: cell-based or functional assay
# Sequence of human CD81 (on Huh-7 cells and human primary hepatocytes) (human) (P60033 whole entry): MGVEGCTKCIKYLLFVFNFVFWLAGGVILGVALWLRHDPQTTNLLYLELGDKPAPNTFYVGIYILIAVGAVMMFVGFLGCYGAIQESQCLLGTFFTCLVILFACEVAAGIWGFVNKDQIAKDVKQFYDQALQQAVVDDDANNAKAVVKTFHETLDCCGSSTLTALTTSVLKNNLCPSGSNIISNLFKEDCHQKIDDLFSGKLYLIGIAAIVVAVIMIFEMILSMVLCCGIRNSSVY
substance,measurement,value
JS-81 anti-CD81 monoclonal antibody (Pharmingen),"inhibition of infection by HCVpp of genotypes 1a and 1b, target cells pre-incubated with 30 µg/ml antibody",> 90%
